Assay results: article PMC9418332, “Perforin-2 clockwise hand-over-hand pre-pore to pore transition mechanism” (Nature Communications, 2022)

Molecular target: the molecule itself
Assay: high-speed atomic force microscopy (HS-AFM); pre-pore rings on supported E. coli lipid bilayer, buffer acidified with HCl to ~pH 4.0 in the fluid cell; imaging at 200 ms temporal resolution, room temperature; pre-pore ring openings and pore arcs

B1: Ectodomain of mPFN2 (Perforin-2) (domain or fragment, mouse (printed as mPFN2), UniProt A1L314 20-652, looked up)
chain: DKPLGETGTTGFQICKNALKLPVLEVLPGGGWDNLRNVDMGRVMDLTYTNCKTTEDGQYIIPDEVYTIPQKESNLEMNSEVLESWMNYQSTTSLSINTELALFSRVNGKFSTEFQRMKTLQVKDQAVTTRVQVRNRIYTVKTTPTSELSLGFTKALMDICDQLEKNQTKMATYLAELLILNYGTHVITSVDAGAALVQEDHVRSSFLLDNQNSQNTVTASAGIAFLNIVNFKVETDYISQTSLTKDYLSNRTNSRVQSFGGVPFYPGITLETWQKGITNHLVAIDRAGLPLHFFIKPDKLPGLPGPLVKKLSKTVETAVRHYYTFNTHPGCTNVDSPNFNFQANMDDDSCDAKVTNFTFGGVYQECTELSGDVLCQNLEQKNLLTGDFSCPPGYSPVHLLSQTHEEGYSRLECKKKCTLKIFCKTVCEDVFRVAKAEFRAYWCVAAGQVPDNSGLLFGGVFTDKTINPMTNAQSCPAGYIPLNLFESLKVCVSLDYELGFKFSVPFGGFFSCIMGNPLVNSDTAKDVRAPSLKKCPGGFSQHLAVISDGCQVSYCVKAGIFTGGSLLPVRLPPYTKPPLMSQVATNTVIVTNSETARSWIKDPQTNQWKLGEPLELRRAMTVIHGDSNGMSGG
notes: Perforin-2 (PFN2, MPEG1), mouse (printed as mPFN2), ectodomain, UniProt A1L314 residues 20-652; Applied as monomers (0.043 mg/ml) and self-assembles on the support; The 1D4 tag is inferred from the resin; also called MPEG1; source: HEK293T or HEK293S cells, transient transfection; purified from the media using anti-1D4 antibody-coupled agarose resin
With B1 the “stoichiometry N” value was 16 subunits.
